These results are taken from paper PMC5551713 (The Journal of Cell Biology, 2017).

Assay in all cases: negative-stain TEM
For data set [1], the target named is PFKL-H199Y, point mutant at the sugar substrate binding site (human) (UniProt P17858).
The target in data set [2] is muscle PFK1 (PFKM), phosphofructokinase-1, 780-amino-acid isoform 2 (human) (UniProt P08237).
The target of data set [3] is platelet PFK1 (PFKP), phosphofructokinase-1 (human) (UniProt Q01813).
The data set “negative-stain TEM” concerns the molecule itself.

Usually stoichiometry N stands for a count of units in the complex or per binding partner. Turning to “PFKL-H199Y, point mutant at the sugar substrate binding site (from UniProt P17858-1 1-780) (enzyme)”, the stoichiometry N in data set [1] is 4. Regarding “muscle PFK1 (PFKM), phosphofructokinase-1, 780-amino-acid isoform 2 (from UniProt P08237-1 1-780) (enzyme)”, the stoichiometry N in data set [2] came to 4. Consider “platelet PFK1 (PFKP), phosphofructokinase-1 (from UniProt Q01813 1-784) (enzyme)”, for which the stoichiometry N in data set [3] worked out at 4.

B1: liver PFK1 (PFKL), phosphofructokinase-1, 780-amino-acid isoform b (enzyme, human, UniProt P17858-1 1-780, looked up)
chain: MAAVDLEKLRASGAGKAIGVLTSGGDAQGMNAAVRAVTRMGIYVGAKVFLIYEGYEGLVEGGENIKQANWLSVSNIIQLGGTIIGSARCKAFTTREGRRAAAYNLVQHGITNLCVIGGDGSLTGANIFRSEWGSLLEELVAEGKISETTARTYSHLNIAGLVGSIDNDFCGTDMTIGTDSALHRIMEVIDAITTTAQSHQRTFVLEVMGRHCGYLALVSALASGADWLFIPEAPPEDGWENFMCERLGETRSRGSRLNIIIIAEGAIDRNGKPISSSYVKDLVVQRLGFDTRVTVLGHVQRGGTPSAFDRILSSKMGMEAVMALLEATPDTPACVVTLSGNQSVRLPLMECVQMTKEVQKAMDDKRFDEATQLRGGSFENNWNIYKLLAHQKPPKEKSNFSLAILNVGAPAAGMNAAVRSAVRTGISHGHTVYVVHDGFEGLAKGQVQEVGWHDVAGWLGRGGSMLGTKRTLPKGQLESIVENIRIYGIHALLVVGGFEAYEGVLQLVEARGRYEELCIVMCVIPATISNNVPGTDFSLGSDTAVNAAMESCDRIKQSASGTKRRVFIVETMGGYCGYLATVTGIAVGADAAYVFEDPFNIHDLKVNVEHMTEKMKTDIQRGLVLRNEKCHDYYTTEFLYNLYSSEGKGVFDCRTNVLGHLQQGGAPTPFDRNYGTKLGVKAMLWLSEKLREVYRKGRVFANAPDSACVIGLKKKAVAFSPVTELKKDTDFEHRMPREQWWLSLRLMLKMLAQYRISMAAYVSGELEHVTRRTLSMDKGF
In the case of B1, in the data set “negative-stain TEM”, the “stoichiometry N” value was found to be 4.
